Reference: the supplement of paper PMC10724198
± gives the standard deviation of the averaged measurements.

Key:
Saccharomyces cerevisiae [1] = assay: protein stability index of tFT-peptide fusion (C-terminal peptide) (PSI (0-1 scale)); higher = more stable (slower turnover)
Description: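 MPS profiling in S. cerevisiae of the tFT-X12 degron library: putative degron peptides plus stable controls, 12 aa, fused to the C-terminus of a sfGFP-mCherry timer. Cells are FACS-sorted into 8 mCherry/sfGFP bins and deep-sequenced. PSI runs from 0 (unstable) to 1 (stable). Backgrounds are wild type, das1Δ and doa10Δ at 30 °C, and wild type, das1Δ, cdc34-1 and cdc53-1 at 37 °C; 2-3 technical replicates each.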

Saccharomyces cerevisiae [2] = assay: as above; settings: genetic background: wild type; temperature: 30 C
[3] = genetic background: cdc34-1, temperature: 37 C
[4] = genetic background: cdc53-1, temperature: 37 C
[5] = genetic background: das1 deletion, temperature: 30 C
[6] = genetic background: das1 deletion, temperature: 37 C
[7] = genetic background: doa10 deletion, temperature: 30 C
[8] = genetic background: wild type, temperature: 30 C
[9] = genetic background: wild type, temperature: 37 C
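Further: PSI is a weighted mean of sequencing reads over stability bins, variants kept only with over 10 reads, mCherry proximal and sfGFP distal, peptide attached via GGGS linker.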

Row | Sequence | protein stability index (Saccharomyces cerevisiae [1]; [3]) | protein stability index (Saccharomyces cerevisiae [1]; [4]) | protein stability index (Saccharomyces cerevisiae [1]; [5]) | protein stability index (Saccharomyces cerevisiae [1]; [6]) | protein stability index (Saccharomyces cerevisiae [1]; [7]) | protein stability index (Saccharomyces cerevisiae [1]; [8]) | protein stability index (Saccharomyces cerevisiae [1]; [9]) | protein stability index (Saccharomyces cerevisiae [2])
1 | SLVLLVASVTGS | 0.507 ± 0.0053 | 0.546 ± 0.013 | 0.385 ± 0.024 | 0.5781 ± 0.0054 | 0.347 ± 0.01 | 0.384 ± 0.03 | 0.553 ± 0.017 | 0.464 ± 0.016
2 | SMFFLFFFFFFF | 0.396 ± 0.0071 | 0.356 ± 0.018 | 0.35 ± 0.042 | 0.444 ± 0.034 | 0.432 ± 0.028 | 0.328 ± 0.017 | 0.4177 ± 0.0027 | 0.36 ± 0.04
3 | SNFQLLPLFKNI | 0.791 ± 0.12 | 0.789 ± 0.0083 | 0.651 ± 0.044 | 0.799 ± 0.027 | 0.182 ± 0.0062 | 0.216 ± 0.041 | 0.546 ± 0.056 | 0.39 ± 0.032
4 | SPRGVVIAFLVC | 0.425 ± 0.016 | 0.569 ± 0.089 | 0.356 ± 0.028 | 0.5766 ± 0.0025 | 0.11 ± 0.014 | 0.124 ± 0.025 | 0.109 ± 0.0082 | 0.129 ± 0.057
5 | SQIALIQYFHIL | 0.408 ± 0.02 | 0.655 ± 0.017 | 0.594 ± 0.015 | 0.704 ± 0.016 | 0.0937 ± 0.022 | 0.1 ± 0.017 | 0.202 ± 0.029 | 0.101 ± 0.06
6 | SQVILFFLSLCR | 0.607 ± 0.024 | 0.654 ± 0.011 | 0.494 ± 0.024 | 0.619 ± 0.0082 | 0.485 ± 0.011 | 0.4977 ± 0.0029 | 0.61 ± 0.022 | 0.552 ± 0.08
7 | SRICRTIIQLKQ | 0.561 ± 0.025 | 0.681 ± 0.013 | 0.626 ± 0.029 | 0.689 ± 0.033 | 0.107 ± 0.0018 | 0.121 ± 0.022 | 0.266 ± 0.004 | 0.168 ± 0.0027
8 | SRLVSRLGLYLS | 0.656 ± 0.054 | 0.71 ± 0.0097 | 0.626 ± 0.013 | 0.728 ± 0.035 | 0.214 ± 0.0099 | 0.22 ± 0.022 | 0.475 ± 0.03 | 0.361 ± 0.02
9 | SRRRRLVSKFLA | 0.63 ± 0.043 | 0.7 ± 0.042 | 0.653 ± 0.027 | 0.729 ± 0.03 | 0.141 ± 0.019 | 0.161 ± 0.0082 | 0.3 ± 0.0063 | 0.223 ± 0.017
10 | SRRSIGAYLFVS | 0.693 ± 0.053 | 0.761 ± 0.029 | 0.635 ± 0.039 | 0.768 ± 0.031 | 0.178 ± 0.013 | 0.208 ± 0.018 | 0.411 ± 0.025 | 0.339 ± 0.026
11 | SRSFWHAIVFLA | 0.373 ± 0.043 | 0.589 ± 0.015 | 0.542 ± 0.026 | 0.649 ± 0.0067 | 0.0822 ± 0.036 | 0.0959 ± 0.028 | 0.0963 ± 0.018 | 0.122 ± 0.085
12 | SRWMWFDWLRRA | 0.644 ± 0.027 | 0.736 ± 0.028 | 0.686 ± 0.026 | 0.747 ± 0.029 | 0.281 ± 0.012 | 0.295 ± 0.0095 | 0.541 ± 0.0019 | 0.417 ± 0.065
13 | SSCFLLFRVVWR | 0.285 ± 0.01 | 0.321 ± 0.0088 | 0.257 ± 0.03 | 0.436 ± 0.0013 | 0.292 ± 0.005 | 0.244 ± 0.026 | 0.412 ± 0.016 | 0.367 ± 0.011
14 | SSFDFVVSLCIY | 0.501 ± 0.044 | 0.526 ± 0.052 | 0.39 ± 0.021 | 0.49 ± 0.015 | 0.347 ± 0.019 | 0.36 ± 0.013 | 0.476 ± 0.014 | 0.454 ± 0.041
15 | STSSVMVFLRMC | 0.5544 ± 0.0036 | 0.681 ± 0.038 | 0.601 ± 0.013 | 0.708 ± 0.036 | 0.14 ± 0.003 | 0.124 ± 0.01 | 0.161 ± 0.042 | 0.281 ± 0.057
16 | SVAGFFLLLLLS | 0.3561 ± 0.0034 | 0.397 ± 0.0096 | 0.305 ± 0.036 | 0.487 ± 0.02 | 0.191 ± 0.0079 | 0.193 ± 0.029 | 0.338 ± 0.0072 | 0.285 ± 0.012
17 | SVECLCLFVACR | 0.1923 ± 0.00067 | 0.254 ± 0.0049 | 0.193 ± 0.026 | 0.3432 ± 0.0011 | 0.155 ± 0.0075 | 0.184 ± 0.025 | 0.288 ± 0.0032 | 0.259 ± 0.013
18 | SVFGVRARFGSV | 0.766 ± 0.0082 | 0.803 ± 0.013 | 0.709 ± 0.018 | 0.781 ± 0.027 | 0.707 ± 0.046 | 0.724 ± 0.018 | 0.7738 ± 0.0016 | 0.756 ± 0.014
19 | SVFVVVVLVFWY | 0.221 ± 0.042 | 0.3 ± 0.039 | 0.22 ± 0.029 | 0.33 ± 0.024 | 0.211 ± 0.018 | 0.22 ± 0.029 | 0.316 ± 0.016 | 0.269 ± 0.0066
20 | SVIAYTKPLWFR | 0.4205 ± 0.0039 | 0.3736 ± 0.0027 | 0.351 ± 0.032 | 0.498 ± 0.009 | 0.658 ± 0.02 | 0.361 ± 0.016 | 0.486 ± 0.013 | 0.475 ± 0.0065

Row | Sequence | protein stability index (Saccharomyces cerevisiae [1]; [3]) | protein stability index (Saccharomyces cerevisiae [1]; [4]) | protein stability index (Saccharomyces cerevisiae [1]; [5]) | protein stability index (Saccharomyces cerevisiae [1]; [6]) | protein stability index (Saccharomyces cerevisiae [1]; [7]) | protein stability index (Saccharomyces cerevisiae [1]; [8]) | protein stability index (Saccharomyces cerevisiae [1]; [9]) | protein stability index (Saccharomyces cerevisiae [2])
21 | SVLRCPVILLAY | 0.0423 ± 0.031 | 0.0232 ± 0.0025 | 0.0735 ± 0.036 | 0.0681 ± 0.008 | 0.0717 ± 0.0093 | 0.078 ± 0.017 | 0.0527 ± 0.02 | 0.0975 ± 0.012
22 | SVSFFSLCTSSL | 0.511 ± 0.033 | 0.596 ± 0.006 | 0.506 ± 0.023 | 0.541 ± 0.011 | 0.521 ± 0.033 | 0.507 ± 0.02 | 0.511 ± 0.021 | 0.487 ± 0.012
23 | SWTAYSYQWVFF | 0.407 ± 0.025 | 0.57 ± 0.0072 | 0.4972 ± 0.0028 | 0.577 ± 0.016 | 0.0469 ± 0.0093 | 0.0403 ± 0.018 | 0.215 ± 0.031 | 0.128 ± 0.014
24 | SWVSVLSELLAC | 0.224 ± 0.014 | 0.249 ± 0.017 | 0.251 ± 0.045 | 0.362 ± 0.0082 | 0.204 ± 0.0092 | 0.238 ± 0.025 | 0.2873 ± 0.0022 | 0.336 ± 0.022
25 | SYCFCCCVLFWG | 0.432 ± 0.019 | 0.517 ± 0.011 | 0.352 ± 0.028 | 0.559 ± 0.056 | 0.325 ± 0.011 | 0.357 ± 0.017 | 0.502 ± 0.018 | 0.407 ± 0.026
26 | SYFSVTLFFTVI | 0.281 ± 0.015 | 0.383 ± 0.0059 | 0.298 ± 0.032 | 0.419 ± 0.0015 | 0.252 ± 0.02 | 0.272 ± 0.016 | 0.386 ± 0.024 | 0.38872 ± 0.00027
27 | SYRFFLFLAVFV | 0.555 ± 0.014 | 0.554 ± 0.048 | 0.451 ± 0.034 | 0.574 ± 0.0017 | 0.442 ± 0.017 | 0.44 ± 0.012 | 0.5379 ± 0.0032 | 0.461 ± 0.021
28 | SYVFCYICGVQS | 0.607 ± 0.038 | 0.592 ± 0.025 | 0.411 ± 0.03 | 0.596 ± 0.015 | 0.338 ± 0.031 | 0.372 ± 0.018 | 0.552 ± 0.025 | 0.428 ± 0.06
29 | SYVRLDLFFFLG | 0.517 ± 0.069 | 0.591 ± 0.03 | 0.491 ± 0.012 | 0.5727 ± 0.0048 | 0.46 ± 0.038 | 0.472 ± 0.026 | 0.5357 ± 0.0037 | 0.568 ± 0.11
30 | TGVPNPSVAVMC | 0.639 ± 0.039 | 0.623 ± 0.023 | 0.457 ± 0.025 | 0.6489 ± 0.005 | 0.446 ± 0.019 | 0.475 ± 0.028 | 0.625 ± 0.0069 | 0.498 ± 0.098
31 | TIYGYEVTRKIG | 0.645 ± 0.068 | 0.78 ± 0.025 | 0.621 ± 0.019 | 0.732 ± 0.031 | 0.0795 ± 0.011 | 0.11 ± 0.021 | 0.145 ± 0.018 | 0.155 ± 0.0023
32 | TLLAFLIYLCFL | 0.496 ± 0.023 | 0.515 ± 0.061 | 0.403 ± 0.023 | 0.546 ± 0.0095 | 0.402 ± 0.017 | 0.365 ± 0.028 | 0.499 ± 0.043 | 0.416 ± 0.012
33 | TPVIPLIRVRDC | 0.59 ± 0.034 | 0.701 ± 0.012 | 0.568 ± 0.017 | 0.691 ± 0.021 | 0.171 ± 0.011 | 0.225 ± 0.02 | 0.456 ± 0.0093 | 0.29 ± 0.023
34 | TTGLLPSAYIWS | 0.758 ± 0.05 | 0.753 ± 0.024 | 0.6494 ± 0.0043 | 0.768 ± 0.033 | 0.677 ± 0.0094 | 0.667 ± 0.028 | 0.716 ± 0.04 | 0.762 ± 0.011
35 | TVWRRIRHACAH | 0.597 ± 0.023 | 0.683 ± 0.0099 | 0.596 ± 0.013 | 0.702 ± 0.035 | 0.193 ± 0.0082 | 0.226 ± 0.015 | 0.365 ± 0.0047 | 0.376 ± 0.038
36 | VAVYVGVGVSLG | 0.454 ± 0.045 | 0.523 ± 0.048 | 0.311 ± 0.03 | 0.546 ± 0.004 | 0.2819 ± 0.0021 | 0.33 ± 0.017 | 0.511 ± 0.039 | 0.423 ± 0.0046
37 | VAWFFFAYAFFM | 0.361 ± 0.058 | 0.451 ± 0.015 | 0.321 ± 0.043 | 0.488 ± 0.015 | 0.251 ± 0.0032 | 0.266 ± 0.026 | 0.407 ± 0.0093 | 0.321 ± 0.0039
38 | VCALHSAPLLIF | 0.453 ± 0.029 | 0.484 ± 0.017 | 0.352 ± 0.034 | 0.496 ± 0.0065 | 0.307 ± 0.005 | 0.362 ± 0.012 | 0.467 ± 0.00048 | 0.462 ± 0.023
39 | VCLVLVVVWWSG | 0.219 ± 0.0066 | 0.277 ± 0.028 | 0.222 ± 0.021 | 0.338 ± 0.0041 | 0.1895 ± 0.0012 | 0.201 ± 0.027 | 0.313 ± 0.012 | 0.292 ± 0.024
